The source of these data is US20240199757A1.

The target in this assay is T1, human NT5E expressed on MDA-MB-231 cells (human) (UniProt P21589).
T1 sequence (looked up): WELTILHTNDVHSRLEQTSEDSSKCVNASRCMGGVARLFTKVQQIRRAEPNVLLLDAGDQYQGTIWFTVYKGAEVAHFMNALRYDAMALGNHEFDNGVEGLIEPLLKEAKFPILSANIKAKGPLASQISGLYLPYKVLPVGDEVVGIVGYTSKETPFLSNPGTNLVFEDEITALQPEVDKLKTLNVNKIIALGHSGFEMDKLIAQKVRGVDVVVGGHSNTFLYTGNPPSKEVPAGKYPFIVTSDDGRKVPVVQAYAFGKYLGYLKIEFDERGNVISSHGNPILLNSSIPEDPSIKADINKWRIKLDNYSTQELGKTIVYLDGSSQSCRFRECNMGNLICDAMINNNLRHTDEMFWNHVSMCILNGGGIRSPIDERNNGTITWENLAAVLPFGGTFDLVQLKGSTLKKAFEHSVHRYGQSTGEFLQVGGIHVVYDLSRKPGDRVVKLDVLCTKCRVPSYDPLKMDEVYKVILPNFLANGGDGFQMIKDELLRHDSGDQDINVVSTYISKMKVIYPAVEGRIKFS
Kind of assay: cell-based or functional assay.

The substance BMS986179 IgG (antibody) had an IC50 of NT5E activity on MDA-MB-231 cells, no ATP of 0.6 nM; an IC50 of NT5E activity on MDA-MB-231 cells, with ATP of 1.1 nM; a maximal inhibition of NT5E on MDA-MB-231 cells of 70%.
